According to patent US20210070843A1:

Experiments:
[1] = target: cell surface-expressed H3N2 WN/05 HA trimer (influenza A virus A/Wisconsin/67/2005 (H3N2)); test: flow cytometry, HA-expressing 293T
[2] = target: full-length H1 A/California/07/2009 HA expressed on 293T cells (influenza A virus A/California/07/2009 (H1N1)); test: flow cytometry, HA-expressing 293T
[3] = target: full-length H5 A/Vietnam/1203/2004 HA expressed on 293T cells (influenza A virus A/Vietnam/1203/2004 (H5N1)); test: flow cytometry, HA-expressing 293T
[4] = target: H7 A/Anhui/1-BALF_RG17/2013 HA on H7N9 AH/13 pseudo virus (influenza A virus A/Anhui/1-BALF_RG17/2013 (H7N9)); test: cell-based or functional assay
[5] = target: cell surface-expressed H3N2 WN/05 HA trimer (influenza A virus A/Wisconsin/67/2005 (H3N2)); test: cell-based or functional assay
[6] = target: full-length H1 A/California/07/2009 HA expressed on 293T cells (influenza A virus A/California/07/2009 (H1N1)); test: cell-based or functional assay
[7] = target: full-length H5 A/Vietnam/1203/2004 HA expressed on 293T cells (influenza A virus A/Vietnam/1203/2004 (H5N1)); test: cell-based or functional assay

Row | Binder | EC50 [1] [µg/mL] | max. MFI [1] [MFI] | max. MFI [2] [MFI] | max. MFI [3] [MFI] | IC50 of pseudo virus neutralization H7N9 AH/13 [4] [µg/mL] | IC50 of pseudo virus neutralization H3N2 WN/05 [5] [µg/mL] | IC50 of pseudo virus neutralization H1N1 CA/09 [6] [µg/mL] | IC50 of true virus neutralization H1N1 CA/09 [6] [µg/mL] | IC50 of pseudo virus neutralization H5N1 VN/04 [7] [µg/mL] | EC50 [2] [µg/mL] | EC50 [3] [µg/mL]
1 | C05 (antibody, V domains shown) VH: PVQLQESGGGLVQPGESLRLSCVGSGSSFGESTLSYYAVSWVRQAPGKGLEWLSIINAGGGDIDYADSVEGRFTISRDNSKETLYLQMTNLRVEDTGVYYCAKHMSMQQVVSAGWERADLVGDAFDVWGQGTMVTVSS VL: DIQLTQSPSSLSASVGDRVTLTCQASQDIRKFLNWYQQKPGKGPKLLIYDASNLQRGVPSRFSGGGSGTDFTLIISSLQPEDVGTYYCQQYDGLPFTFGGGTKVEIKR | 0.13 | 14600 | 86 | 547 | > 200 | 0.0102 | > 100 | > 500 | > 200 |  | 
2 | P47 (antibody, V domains shown) VH: EVQLVESGGGLVQPGGSLRLSCAASGFTIGNSGIHWVRQAPGKGLEWVASIWPSGGSTYYADSVKGRFTISADTSKNTAYLQMNSLRAEDTAVYYCARFGHIDGDIMDYWGQGTLVTVSS VL: DIQMTQSPSSLSASVGDRVTITCRASQDVYYYVAWYQQKPGKAPKLLISGSSYLYSGVPSRFSGSGSGTDFTLTISSLQPEDFATYYCQQYYNWPLTFGQGTKVEIKR |  | 175 | 10200 | 396 | > 200 | > 20 | > 100 | > 500 | > 200 | 0.61 | 
3 | S07 (antibody, V domains shown) VH: EVQLVESGGGLVQPGGSLRLSCAASGFTINSSGIHWVRQAPGKGLEWVASIGPSWGSTYYADSVKGRFTISADTSKNTAYLQMNSLRAEDTAVYYCARFGIGDIDVMDYWGQGTLVTVSS VL: DIQMTQSPSSLSASVGDRVTITCRASQDVWGYVAWYQQKPGKAPKLLISYASFLYSGVPSRFSGSGSGTDFTLTISSLQPEDFATYYCQQYFNWPVTFGQGTKVEIKR | 3.71 | 410 | 10800 | 863 | > 200 | > 20 | > 100 | > 500 | > 200 | 1.61 | 4.98
4 | P48 (antibody, V domains shown) VH: EVQLVESGGGLVQPGGSLRLSCAASGFTINSWGIHWVRQAPGKGLEWVAGIGPSWGYTSYADSVKGRFTISADTSKNTAYLQMNSLRAEDTAVYYCARFGDGDFDLMDYWGQGTLVTVSS VL: DIQMTQSPSSLSASVGDRVTITCRASQDVWSYVAWYQQKPGKAPKLLISYTSYLYSGVPSRFSGSGSGTDFTLTISSLQPEDFATYYCQQYFNWPITFGQGTKVEIKR |  | 258 | 7860 | 474 | > 200 | > 20 | > 100 | > 500 | > 200 | 2.4 | 
5 | S01 (antibody, V domains shown) VH: EVQLVESGGGLVQPGGSLRLSCAASGFTINNYGIHWVRQAPGKGLEWVASIWPSGGYTSYADSVKGRFTISADTSKNTAYLQMNSLRAEDTAVYYCARFGLGDYDIMDYWGQGTLVTVSS VL: DIQMTQSPSSLSASVGDRVTITCRASQDVWGYVAWYQQKPGKAPKLLISFPSSLYSGVPSRFSGSGSGTDFTLTISSLQPEDFATYYCQQYYDGPVTFGQGTKVEIKR |  | 178 | 8430 | 306 | > 200 | > 20 | > 100 | > 500 | > 200 | 0.384 | 
